Substitutions are numbered along the chain they refer to.
B1: P056028-G-01R (protein)
chain: MGPTPTATAAGAAVAAASAAEQAAFRLVGHRNFVRFNPRSDRFQTLAFHHVELWCADAASAAGRFSFALGVPLAARSDLSTGNSAHASLLLRSGSLSLLFTAPYAHGADAATAALPSFSAAAARRFAADHGLAVRAVALRVADAEDAFRASVAAGARPAFGPVDLGRGFRLAEVELYGDVVLRYVSYPDGAAGEPFLPGFEGVASPGAADLGLNRFDHIVGNVPELAPAAAYMAGFTGFHEFAEFTTEDVGTTESGLNSMALANNSENVLLPLNEPVHGTKRRSQIQTFLDHHGGPGVQHIALASDDVLRTLREMRARSAMGGFEFLPPPLSDYYDGVRKCAGDVLTEAQINECQELGVMVDRDDEGVLLQIFTKPVGDRPTFFLEIIQRIGCREKDEKGQEYQKGGCGGFGKGNFGQLFKSIEDYEKSLEKKRAAAAATAQGS
modifications: Zea mays variant form created by artificial means.
B2: 9070Q366E (protein)
chain: B1 chain with L211Y, N214S, K340R, R394M, K432A, R434Q
modifications: Zea mays variant form created by artificial means.
B3: P056028-B-09 (protein)
chain: B1 chain with L211Y, N214S, G337D, K340R, R394V, K432A
modifications: Zea mays variant form created by artificial means.
B4: P056028-D-03 (protein)
chain: B1 chain with L182M, L211Y, K340R, R394M, K432A, R434Q
modifications: Zea mays variant form created by artificial means.
B5: P056028-B-02 (protein)
chain: B1 chain with P206S, L211Y, N214S, K340R, E356K, R394M, K428R, K432A, R434Q, A438V
modifications: Zea mays variant form created by artificial means.
B6: P056028-A-03 (protein)
chain: B1 chain with A191G, N214S, K340R, R394M, K432R
modifications: Zea mays variant form created by artificial means.

What follows are molecules tested on 4-hydroxyphenylpyruvate dioxygenase (HPPD) (assay: ON rate ratio: HPPD reaction rate with vs without inhibitor in the 70 to 90 second interval). Conditions: Table 7; tembotrione; combinatorial variants.
Assay type: biochemical, Z. mays
How it was run: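 Time courses of HPPD reactions, 60 or 120 nM enzyme with 100 μM HPP substrate, run with and without 4 μM inhibitor (e.g. mesotrione, tembotrione). Value is the rate with inhibitor over rate without, taken over 70–90 s; higher ratio reflects slower kON.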

| Molecule | ON rate ratio |
| --- | --- |
| B1 | 0.719 |
| B2 | 0.760 |
| B3 | 0.648 |
| B4 | 0.770 |
| B5 | 0.800 |
| B6 | 0.748 |

Same assay, conditions: inhibitor diketonitrile form of isoxaflutole (DKN)

| Molecule | Insensitivity, isoxaflutole (DKN), Rate ratio ON |
| --- | --- |
| B1 | 0.77 |
| B2 | 0.83 |
| B3 | 0.77 |
| B4 | 0.76 |
| B5 | 0.80 |
| B6 | 0.81 |

Same assay, conditions: inhibitor mesotrione

| Molecule | Insensitivity, mesotrione, Rate ratio ON |
| --- | --- |
| B1 | 0.73 |
| B2 | 0.72 |
| B3 | 0.67 |
| B4 | 0.68 |
| B5 | 0.63 |
| B6 | 0.70 |

Same assay, conditions: inhibitor sulcotrione

| Molecule | Insensitivity, sulcotrione, Rate ratio ON |
| --- | --- |
| B1 | 0.75 |
| B2 | 0.80 |
| B3 | 0.78 |
| B4 | 0.76 |
| B5 | 0.81 |
| B6 | 0.80 |

Same assay, conditions: inhibitor tembotrione

| Molecule | Insensitivity, tembotrione, Rate ratio ON |
| --- | --- |
| B1 | 0.72 |
| B2 | 0.82 |
| B3 | 0.75 |
| B4 | 0.77 |
| B5 | 0.80 |
| B6 | 0.80 |

Same assay, conditions: inhibitor topramezone

| Molecule | Insensitivity, topramezone, Rate ratio ON |
| --- | --- |
| B1 | 0.81 |
| B2 | 0.81 |
| B3 | 0.80 |
| B4 | 0.80 |
| B5 | 0.79 |
| B6 | 0.81 |

The molecules below were run on 4-hydroxyphenylpyruvate dioxygenase (HPPD) (assay: Insensitivity parameter (ON × OFF) and trait fitness (ON × OFF × kcat/KM or × kcat)). Conditions: Megatable 3; shuffled variants.
Assay type: biochemical, Z. mays
Design: key to ON × OFF / Insensitivity, mesotrione, ON × OFF / Insensitivity, tembotrione, ON × OFF / Insensitivity, topramezone, ON × OFF / Insensitivity, sulcotrione, ON × OFF / Insensitivity, isoxaflutole (DKN), ON × OFF: insensitivity = ON rate ratio × OFF rate ratio (surrogate for KD)
How it was run: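 Calculated, not measured directly: ON rate ratio × OFF rate ratio gives an insensitivity parameter serving as a KD surrogate.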

| Molecule | ON × OFF | ON × OFF × kcat |
| --- | --- | --- |
| B1 | 0.201 | 14.24 |
| B2 | 0.208 | 4.18 |
| B3 | 0.121 | 4.19 |
| B4 | 0.349 | 6.83 |
| B5 | 0.375 | 10.58 |
| B6 | 0.181 | 4.36 |

Same assay, conditions: Table 7; tembotrione; combinatorial variants

| Molecule | ON × OFF | ON × OFF × kcat |
| --- | --- | --- |
| B1 | 0.201 | 14.24 |
| B2 | 0.208 | 4.18 |
| B3 | 0.121 | 4.19 |
| B4 | 0.349 | 6.83 |
| B5 | 0.375 | 10.58 |
| B6 | 0.181 | 4.36 |

Same assay, conditions: inhibitor diketonitrile form of isoxaflutole (DKN)

| Molecule | Insensitivity, isoxaflutole (DKN), ON × OFF | Insensitivity, isoxaflutole (DKN), Trait fitness |
| --- | --- | --- |
| B1 | 0.29 | 3.98 |
| B2 | 0.17 | 3.40 |
| B3 | 0.25 | 7.93 |
| B4 | 0.31 | 6.51 |
| B5 | 0.35 | 6.78 |
| B6 | 0.34 | 7.25 |

Same assay, conditions: inhibitor mesotrione

| Molecule | Insensitivity, mesotrione, ON × OFF | Insensitivity, mesotrione, Trait Fitness |
| --- | --- | --- |
| B1 | 0.73 | 25.6 |
| B2 | 0.72 | 14.0 |
| B3 | 0.67 | 21.2 |
| B4 | 0.68 | 14.5 |
| B5 | 0.63 | 12.3 |
| B6 | 0.70 | 14.8 |

Same assay, conditions: inhibitor sulcotrione

| Molecule | Insensitivity, sulcotrione, ON × OFF | Insensitivity, sulcotrione, Trait fitness |
| --- | --- | --- |
| B1 | 0.83 | 11.5 |
| B2 | 0.50 | 9.69 |
| B3 | 0.68 | 21.6 |
| B4 | 0.84 | 17.9 |
| B5 | 0.81 | 15.8 |
| B6 | 0.75 | 15.7 |

Same assay, conditions: inhibitor tembotrione

| Molecule | Insensitivity, tembotrione, ON × OFF | Insensitivity, tembotrione, Trait fitness |
| --- | --- | --- |
| B1 | 0.20 | 7.09 |
| B2 | 0.27 | 5.25 |
| B3 | 0.26 | 8.28 |
| B4 | 0.35 | 7.44 |
| B5 | 0.37 | 7.35 |
| B6 | 0.32 | 6.81 |

Same assay, conditions: inhibitor topramezone

| Molecule | Insensitivity, topramezone, ON × OFF | Insensitivity, topramezone, Trait Fitness |
| --- | --- | --- |
| B1 | 0.43 | 5.91 |
| B2 | 0.26 | 5.04 |
| B3 | 0.38 | 12.12 |
| B4 | 0.46 | 9.88 |
| B5 | 0.42 | 8.17 |
| B6 | 0.38 | 7.97 |

— US11015206B2, “Compositions and methods comprising sequences having hydroxyphenylpyruvate dioxygenase (HPPD) activity” (PIONEER HI-BRED INTERNATIONAL, INC., priority 2014, dated 2021)
